For data set [1] the following is noted: 40 nmol IVT, scFv versus Fab (ranibizumab); in words; cited from earlier work.
For the next data set, the system named is Alternative Pathway. As to the kind of experiment: WEISLAB Complement system Screen, alternative pathway MAC (C5b-C9) formation. It is filed as biochemical, human. The note with it: single dose of 2 μM; AP-dependent MAC formation. How it is done:
(§1) To identify antibodies that block all 3 complement pathways, antibodies are screened using an enzyme immunoassay for the qualitative determination of functional classical, lectin and alternative complement pathways in human serum using the WEISLAB® Complement system Screen (Svar Life Science AB, Malmö, Sweden).
(§2) To monitor inhibition of the complement system in human serum, the scFv of the invention or the comparator molecules are tested using an enzyme immunoassay for the qualitative determination of functional classical, lectin and alternative complement pathways in human serum using the WEISLAB® Complement system Screen (Svar Life Science AB, Malmö, Sweden), following the supplier's instructions. The amount of C5b-C9 neoantigen generated is proportional to the functional activity of complement pathways. The scFv of the invention and the comparator molecules are tested in a concentration response curve and the IC50 for the inhibition is calculated using the GraphPadPrism software and a non-linear, 4 parameters curve regression.

A further data set concerns Lectin Pathway. As to the kind of experiment: WEISLAB Complement system Screen, lectin pathway MAC (C5b-C9) formation. It is filed as biochemical, human. Particulars: single dose of 2 μM; LP-dependent MAC formation. How it is done:
as §1, §2

The test system of the next data set is Classical Pathway. The data set is described as follows: WEISLAB Complement system Screen, classical pathway MAC (C5b-C9) formation. It is filed as biochemical, human. The note with it: single dose of 2 μM; CP-dependent MAC formation. How it is done:
as §1, §2

B1: Beovu: comparator in EpiMatrix table; brolucizumab is a scFv (antibody, chains of the INN, looked up, V domains shown)
VH: EVQLVESGGGLVQPGGSLRLSCTASGFSLTDYYYMTWVRQAPGKGLEWVGFIDPDDDPYYATWAKGRFTISRDNSKNTLYLQMNSLRAEDTAVYYCAGGDHNSGWGLDIWGQGTLVTVSS
VL: EIVMTQSPSTLSASVGDRVIITCQASEIIHSWLAWYQQKPGKAPKLLIYLASTLASGVPSRFSGSGSGAEFTLTISSLQPDDFATYYCQNVYLASTNGANFGQGTKLTVL
modifications: scFv
notes: brolucizumab is a scFv
For the molecule B1, the “Retinal penetration after equimolar intravitreal injection” value in data set [1] is listed as “improved retinal penetration”.

B2: Clone IV: rabbit-derived parental anti-C3 antibody, SEQ ID NO: 32 (protein)
chain: QSVKESGGRLVTPGTPLTLTCTVSGFSLYNYAMNWVRQAPGKGLEWIGIINTDGNTNYASWAKGRFTISTTSSTTVDLKITSPTTEDTATYFCPRAVGYHHHALDPWGPGTLVTVSSGGGGSGGGGSGGGGSGGGGASELVLTQSPSVSAALGASAKLTCTLSSAHKTYTIDWYQQQQGEAPRYLMQLKSDGSYTKGTGVPDRFSGSSSGADRYLIIPSVQADDEADYYCGTDYGGGYVFGGGTQLTVTG
modifications: scFv
As to B2, the “Residual alternative pathway complement activity with Clone IV [%]” value with Alternative Pathway was −0.1 ± 0.2%. Besides, the “Residual lectin pathway complement activity with Clone IV [%]” value with Lectin Pathway was determined as 0.5 ± 0.9%. Further, in the data set with Classical Pathway, the “Residual classical pathway complement activity with Clone IV” value is listed as 2.9 ± 0.0%.

The record behind these values is patent US12344663B2, “Anti-C3 antibodies and antigen-binding fragments thereof and their uses for treating eye or ocular diseases” (CDR-Life AG, priority 2021, dated 2025).
